# Data from patent publication US6566113B1, “Polypeptide having cellobiohydrolase activity” (Takara Shuzo Co., Ltd., priority 1998, dated 2003).
# B1: polypeptide of the present invention: polypeptide of SEQ ID NO:1 with thermostable cellobiohydrolase activity, expressed from open reading frame PH1171 of Pyrococcus horikoshii OT3 (protein)
# chain: ENTTYQTPTGIYYEVRGDTIYMINVTSGEETPIHLFGVNWFGFETPNHVVHGLWKRNWEDMLLQIKSLGFNAIRLPFCTESVKPGTQPIGIDYSKNPDLRGLDSLQIMEKIIKKAGDLGIFVLLDYHRIGCTHIEPLWYTEDFSEEDFINTWIEVAKRFGKYWNVIGADLKNEPHSVTSPPAAYTDGTGATWGMGNPATDWNLAAERIGKAILKVAPHWLIFVEGTQFTNPKTDSSYKWGYNAWWGGNLMAVKDYPVNLPRNKLVYSPHVYGPDVYNQPYFGPAKGFPDNLPDIWYHHFGYVKLELGYSVVIGEFGGKYGHGGDPRDVIWQNKLVDWMIENKFCDFFYWSWNPDSGDTGGILQDDWTTIWEDKYNNLKRLMDSCSKSSSSTQSVIRSTTPTKSNTSKKICGPAILIILAVFSLLLRRAPR
# modifications: Pyrococcus horikoshii OT3
# What was measured:
# [1] = target: polypeptide of the present invention (cellobiohydrolase, open reading frame PH1171) (Pyrococcus horikoshii, UniProt O58925); experiment: Inhibition of pNPC-degrading activity by glucose, cellobiose and various reagents; assay type: biochemical, Pyrococcus horikoshii OT3; details: for inhibition of pNPC-degrading activity by dithiothreitol: up to 10 mM
# [2] = target: Cellobiohydrolase from Thermotoga sp. FjSS-B.1; details: cellobiohydrolase of Thermotoga sp. FjSS-B.1; read-out: inhibition constant (Ki) for cellobiose; cited from earlier work
# [3] = Identification of hydrolysis products by silica gel thin-layer chromatography; assay type: biochemical
# Experimental: The activity of hydrolyzing cellulose of the expressed polypeptide was identified as follows. Specifically, the expressed polypeptide solution was allowed to act on various substrates. Products were then identified on thin-layer chromatography.
# 75 μl of the expressed polypeptide solution was added to 75 μl of the phosphoric acid-swollen cellulose. The mixture was reacted at 98° C. for 8 hours. 60 μl of acetonitrile was added to the equal volume of the reaction mixture and mixed. A supernatant obtained by centrifugation was evaporated under reduced pressure to dryness. The residue was dissolved in 10 μl of water. 2 μl of the solution was subjected to silica gel thin-layer chromatography. Two rounds of development were carried out using silica gel 60F254 (Merck) as a thin-layer plate and ethanol:butanol:water=5:5:1 as a solvent for development. Orcinol-sulfuric acid reagent was sprayed onto the thin-layer plate after development and the plate was heated using a hot plate to observe the spots. […]
# Reactions were carried out as described above using oligosaccharides as substrates except that the dilution rate of the expressed polypeptide solution was 10 and the reaction time was 2 hours. Supernatants obtained by centrifuging the reaction mixtures were analyzed on silica gel thin-layer chromatography as described above.
# [4] = 4-MUC-degrading activity, specific activity of purified polypeptide; assay type: biochemical; details: 98° C., pH 6.0, 20 minutes
# Experimental: A supernatant obtained by centrifuging the heated supernatant was subjected to anion exchange chromatography using HiTrap Q column (Pharmacia). The sample was applied to two 5 ml HiTrap Q columns connected in series. Elution was carried out using a linear gradient in 20 minutes from 50 mM MES-NaOH buffer (pH 6.0) to the same buffer containing 200 mM NaCl at a flow rate of 2 ml/minute. 50 μl of 6 mM 4-MUC solution in 100 mM MES-NaOH buffer (pH 6.0) was added to 50 μl of one of the serial dilutions of the respective fractions. The mixture was reacted at 98° C. for 20 minutes. Fluorescence value was measured at an excitation wavelength of 355 nm and an emission wavelength of 460 nm. The 4-MUC-degrading activity was calculated based on the amount of released 4-MU.
# 2 ml of the active fraction from the hydrophobic column chromatography was desalted by ultrafiltration, lyophilized and then hydrolyzed in the presence of gas-phase HCl at 135° C. for 3 hours. The hydrolysate was dissolved in 100 μl of water. […] The polypeptide corresponding to 60 mU of the 4-MUC-degrading activity was subjected to the amino acid analysis. Thus, the specific activity was determined to be 17.0 U/mg.
# [5] = pNPC-degrading activity on synthetic substrate; assay type: biochemical; details: 5 mM pNPC, 98° C., 20 minutes, pH 6.0
# Experimental: 50 μl of 10 mM pNPC solution in 0.1 M MES-NaOH buffer (pH 6.0) was added to 50 μl of the polypeptide solution of the present invention or a 2-, 5- 10- or 20-fold dilution thereof with 0.1 M MES-NaOH buffer (pH 6.0). The mixture was reacted at 98° C. for 20 minutes. Absorbance at 405 nm of a supernatant obtained by centrifugation was measured to determine the pNPC-degrading activity based on the amount of released p-nitrophenol (pNP).
# [6] = CMC-degrading activity (reducing ends, Park and Johnson method); assay type: biochemical
# Experimental: When cellulose is degraded using a cellulose hydrolase such as endoglucanase or cellobiohydrolase, reducing ends of glucose residues are newly generated. Then, increase in the amount of reducing end in a unit reaction time was measured according to the Park and Johnson method using carboxymethylcellulose (CMC) as a substrate in order to confirm whether or not a polypeptide having an activity of hydrolyzing cellulose which newly generates reducing ends of glucose residues existed in the Escherichia coli extract.
# A CMC solution was prepared by dissolving CMC (Sigma) in 100 mM sodium citrate buffer (pH 5.0) at a concentration of 1%. […] Absorbance at 690 nm was then measured. The amount of reducing end was determined as the amount of corresponding glucose based on a calibration curve prepared using glucose at a known concentration. […]
# 50 μl of a 50-fold dilution of the polypeptide solution of the present invention with water, 25 μl of a 2% CMC aqueous solution and 25 μl of one of the above-mentioned buffers were mixed together. […] The amount of reducing sugar contained in a supernatant obtained by centrifuging the reaction mixture was measured according to the Park and Johnson method, and the CMC-degrading activity was calculated. […]
# [7] = pH and heat stability: remaining CMC-degrading / cellobiohydrolase activity after heating; assay type: biochemical
# Experimental: 25 μl of the polypeptide solution of the present invention and 25 μl of one of the buffers prepared in Example 3-(1) were mixed together. The mixture was heated at 95° C. for 10 minutes. 50 μl of 1% CMC solution in 0.1 M MES-NaOH buffer (pH 6.0) was added to 50 μl of a 50-fold dilution of the heated mixture with water. The mixture was reacted at 98° C. for 20 minutes. The amount of reducing sugar contained in a supernatant obtained by centrifuging the reaction mixture was measured according to the Park and Johnson method, and the CMC-degrading activity was calculated.
# CMC was dissolved in 0.1 M MES-NaOH buffer (pH 6.0) to prepare a 1% CMC solution (pH 6.0). 50 μl of the MES buffer was added to 50 μl of the polypeptide solution of the present invention. The mixture was heated at 95° C. for 0, 1, 5 or 24 hours. 50 μl of the 1% CMC solution was added to 50 μl of a 50-, 200- or 500-fold dilution of a supernatant obtained by centrifuging the heated mixture with the MES buffer. The mixture was reacted at 98° C. for 20 minutes. The amount of reducing sugar contained in the reaction mixture was measured according to the Park and Johnson method to determine the CMC-degrading activity.
molecule,measurement,setting,value
"O[C@H](CS)[C@H](O)CS (racemic) [DTT, dithiothreitol]",inhibition of pNPC-degrading activity by dithiothreitol,"[1]; 5 mM pNPC, 98° C., pH 6.0",not inhibited
same,inhibition of pNPC-degrading activity by dithiothreitol,"[1]; 5 mM pNPC, 98° C., pH 6.0, listed as dithiothreitol",Almost no inhibition
"O=C(O)CN(CCN(CC(=O)O)CC(=O)O)CC(=O)O [EDTA, ethylenediaminetetraacetic acid]",inhibition at 1000 µM,"[1]; pH 6, read-out: inhibition of pNPC-degrading activity",~50%
same,inhibition of pNPC-degrading activity,"[1]; reagent at 1 mM, 5 mM pNPC, 98° C., pH 6.0",about 50%
O=C[C@H](O)[C@@H](O)[C@H](O[C@@H]1O[C@H](CO)[C@@H](O)[C@H](O)[C@H]1O)[C@H](O)CO [cellobiose],Ki,[2],200 µM
B1,product from phosphoric acid-swollen cellulose (TLC),[3]; 98° C. for 8 hours,generation of cellobiose
same,product from cellooligosaccharides (TLC),"[3]; cellotriose, cellotetraose, cellopentaose, 10-fold dilution, 98° C., 2 hours, pH 6.0",principal degradation product was cellobiose
same,specific activity (4-MUC-degrading activity),[4],17.0 U/mg
same,pNPC-degrading activity versus amount of polypeptide,[5],increased depending on the concentration
same,activity relative to that in the presence of 0.5 M NaCl,[6]; 2.5 M NaCl,about 60%
same,activity relative to that in the presence of 0.5 M NaCl,[6]; absence of NaCl,about 80%
same,activity after heating in the absence of a substrate,[7]; 95° C. for 10 minutes at pH 5 to 7,not decreased
same,retained CMC-degrading activity after heating,"[7]; 95° C. for 24 hours, pH 6.0",about 90%
same,remaining activity after heating,"[7]; 95° C., pH 6, heating for additional 24 hours",About 80%
same,retained activity after heating,[7]; in the presence of a substrate at pH 6 at 95° C. for 5 hours,about 90%
same,retained cellobiohydrolase activity after heat treatment,[7]; treatment at 75° C. for 20 minutes,≥ 80%
same,retained cellobiohydrolase activity after heat treatment,[7]; treatment at 95° C. for 10 minutes,≥ 80%
same,retained cellobiohydrolase activity after heat treatment,[7]; treatment at 95° C. for 5 hours,≥ 80%
